Experimental data published in the supplement of paper PMC9112550, “Optimization of the antimicrobial peptide Bac7 by deep mutational scanning” (BMC Biology, 2022).

Test system: Escherichia coli TOP10
Assay: shrunken log2 fold change of peptide-encoding DNA abundance (4.5 h post-induction vs induction); higher = less antimicrobial activity (less host growth inhibition)
Conditions: time post-induction: 4.5 h; library: site-saturation at positions 5, 18, 19, 20
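Also: peptides expressed intracellularly from a pBAD plasmid library in pooled LB shake-flask culture, induced with 0.3% L-arabinose, DNA abundance read by NGS, three biological replicates, DESeq2 with apeglm shrinkage.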

RRIRRRPPRLPRPRPRPWWFPRP
shrunken log2 fold change: -0.378

RRIRRRPPRLPRPRPRPWWWPRP
shrunken log2 fold change: 0.184

RRIRRRPPRLPRPRPRPWYLPRP
shrunken log2 fold change: -0.313

RRIRRRPPRLPRPRPRPWYMPRP
shrunken log2 fold change: -0.0284

RRIRRRPPRLPRPRPRPWYSPRP
shrunken log2 fold change: -0.0705

RRIRRRPPRLPRPRPRPYAKPRP
shrunken log2 fold change: 0.106

RRIRRRPPRLPRPRPRPYAMPRP
shrunken log2 fold change: -0.121

RRIRRRPPRLPRPRPRPYCNPRP
shrunken log2 fold change: -0.834

RRIRRRPPRLPRPRPRPYFTPRP
shrunken log2 fold change: -0.432

RRIRRRPPRLPRPRPRPYGGPRP
shrunken log2 fold change: -0.326

RRIRRRPPRLPRPRPRPYGMPRP
shrunken log2 fold change: -0.242

RRIRRRPPRLPRPRPRPYGRPRP
shrunken log2 fold change: -0.0338

RRIRRRPPRLPRPRPRPYIKPRP
shrunken log2 fold change: -0.509

RRIRRRPPRLPRPRPRPYKVPRP
shrunken log2 fold change: -0.193

RRIRRRPPRLPRPRPRPYLVPRP
shrunken log2 fold change: -0.0711

RRIRRRPPRLPRPRPRPYMWPRP
shrunken log2 fold change: -0.374

RRIRRRPPRLPRPRPRPYNTPRP
shrunken log2 fold change: -0.436

RRIRRRPPRLPRPRPRPYNYPRP
shrunken log2 fold change: -0.501

RRIRRRPPRLPRPRPRPYPMPRP
shrunken log2 fold change: -0.187

RRIRRRPPRLPRPRPRPYQKPRP
shrunken log2 fold change: -0.458

RRIRRRPPRLPRPRPRPYRHPRP
shrunken log2 fold change: -0.265

RRIRRRPPRLPRPRPRPYRIPRP
shrunken log2 fold change: -0.594

RRIRRRPPRLPRPRPRPYSHPRP
shrunken log2 fold change: -0.528

RRIRRRPPRLPRPRPRPYTNPRP
shrunken log2 fold change: -0.95

RRIRRRPPRLPRPRPRPYTSPRP
shrunken log2 fold change: -0.313

RRIRRRPPRLPRPRPRPYVDPRP
shrunken log2 fold change: -0.102

RRIRRRPPRLPRPRPRPYWEPRP
shrunken log2 fold change: 0.0331

RRIRRRPPRLPRPRPRPYWFPRP
shrunken log2 fold change: -0.299

RRIRRRPPRLPRPRPRPYWSPRP
shrunken log2 fold change: -0.353

RRIRRRPPRLPRPRPRPYWYPRP
shrunken log2 fold change: -0.423

RRIRSRPPRLPRPRPRPAEEPRP
shrunken log2 fold change: 0.164

RRIRSRPPRLPRPRPRPAFDPRP
shrunken log2 fold change: 1.02

RRIRSRPPRLPRPRPRPAFVPRP
shrunken log2 fold change: 0.577

RRIRSRPPRLPRPRPRPAICPRP
shrunken log2 fold change: 0.147

RRIRSRPPRLPRPRPRPAIKPRP
shrunken log2 fold change: -0.352

RRIRSRPPRLPRPRPRPAKGPRP
shrunken log2 fold change: 0.176

RRIRSRPPRLPRPRPRPAKIPRP
shrunken log2 fold change: -0.0773

RRIRSRPPRLPRPRPRPALEPRP
shrunken log2 fold change: 0.407

RRIRSRPPRLPRPRPRPAMHPRP
shrunken log2 fold change: -0.0199

RRIRSRPPRLPRPRPRPAPPPRP
shrunken log2 fold change: 0.458

RRIRSRPPRLPRPRPRPAPVPRP
shrunken log2 fold change: 0.269

RRIRSRPPRLPRPRPRPARKPRP
shrunken log2 fold change: 0.213

RRIRSRPPRLPRPRPRPARLPRP
shrunken log2 fold change: 0.0986

RRIRSRPPRLPRPRPRPASTPRP
shrunken log2 fold change: -0.16

RRIRSRPPRLPRPRPRPASYPRP
shrunken log2 fold change: 0.102

RRIRSRPPRLPRPRPRPATVPRP
shrunken log2 fold change: -0.15

RRIRSRPPRLPRPRPRPAVFPRP
shrunken log2 fold change: 0.114

RRIRSRPPRLPRPRPRPAVNPRP
shrunken log2 fold change: 0.0811

RRIRSRPPRLPRPRPRPAYHPRP
shrunken log2 fold change: -0.1

RRIRSRPPRLPRPRPRPAYIPRP
shrunken log2 fold change: -0.0884

RRIRSRPPRLPRPRPRPCAKPRP
shrunken log2 fold change: 0.0351

RRIRSRPPRLPRPRPRPCCHPRP
shrunken log2 fold change: -0.0953

RRIRSRPPRLPRPRPRPCCIPRP
shrunken log2 fold change: -0.197

RRIRSRPPRLPRPRPRPCEGPRP
shrunken log2 fold change: -0.00992

RRIRSRPPRLPRPRPRPCEYPRP
shrunken log2 fold change: 0.0232

RRIRSRPPRLPRPRPRPCGNPRP
shrunken log2 fold change: 0.1

RRIRSRPPRLPRPRPRPCIKPRP
shrunken log2 fold change: -0.0801

RRIRSRPPRLPRPRPRPCIVPRP
shrunken log2 fold change: -1.05

RRIRSRPPRLPRPRPRPCLPPRP
shrunken log2 fold change: -0.133

RRIRSRPPRLPRPRPRPCLSPRP
shrunken log2 fold change: -0.000866

RRIRSRPPRLPRPRPRPCMNPRP
shrunken log2 fold change: -0.206

RRIRSRPPRLPRPRPRPCMSPRP
shrunken log2 fold change: -0.348

RRIRSRPPRLPRPRPRPCMVPRP
shrunken log2 fold change: -0.511

RRIRSRPPRLPRPRPRPCNKPRP
shrunken log2 fold change: -0.225

RRIRSRPPRLPRPRPRPCSCPRP
shrunken log2 fold change: 0.000754

RRIRSRPPRLPRPRPRPCSIPRP
shrunken log2 fold change: -0.153

RRIRSRPPRLPRPRPRPCVHPRP
shrunken log2 fold change: -0.471

RRIRSRPPRLPRPRPRPCWQPRP
shrunken log2 fold change: -0.00872

RRIRSRPPRLPRPRPRPCWSPRP
shrunken log2 fold change: 0.0886

RRIRSRPPRLPRPRPRPCYEPRP
shrunken log2 fold change: -0.167

RRIRSRPPRLPRPRPRPCYSPRP
shrunken log2 fold change: -0.839

RRIRSRPPRLPRPRPRPDAAPRP
shrunken log2 fold change: 1.05

RRIRSRPPRLPRPRPRPDCFPRP
shrunken log2 fold change: 0.103

RRIRSRPPRLPRPRPRPDCVPRP
shrunken log2 fold change: -0.0759

RRIRSRPPRLPRPRPRPDDAPRP
shrunken log2 fold change: 0.162

RRIRSRPPRLPRPRPRPDDMPRP
shrunken log2 fold change: 0.0939

RRIRSRPPRLPRPRPRPDECPRP
shrunken log2 fold change: 0.0932

RRIRSRPPRLPRPRPRPDFCPRP
shrunken log2 fold change: 0.0315

RRIRSRPPRLPRPRPRPDFYPRP
shrunken log2 fold change: -0.0521

RRIRSRPPRLPRPRPRPDGAPRP
shrunken log2 fold change: 0.289

RRIRSRPPRLPRPRPRPDGYPRP
shrunken log2 fold change: -0.164

RRIRSRPPRLPRPRPRPDIQPRP
shrunken log2 fold change: -0.274

RRIRSRPPRLPRPRPRPDKEPRP
shrunken log2 fold change: 0.0247

RRIRSRPPRLPRPRPRPDKWPRP
shrunken log2 fold change: 0.858

RRIRSRPPRLPRPRPRPDLYPRP
shrunken log2 fold change: -0.171

RRIRSRPPRLPRPRPRPDMSPRP
shrunken log2 fold change: -0.0189

RRIRSRPPRLPRPRPRPDMVPRP
shrunken log2 fold change: -0.00858

RRIRSRPPRLPRPRPRPDPFPRP
shrunken log2 fold change: -0.214

RRIRSRPPRLPRPRPRPDQLPRP
shrunken log2 fold change: -0.167

RRIRSRPPRLPRPRPRPDQWPRP
shrunken log2 fold change: -0.0262

RRIRSRPPRLPRPRPRPDSWPRP
shrunken log2 fold change: 0.0247

RRIRSRPPRLPRPRPRPDVNPRP
shrunken log2 fold change: 0.0672

RRIRSRPPRLPRPRPRPDVRPRP
shrunken log2 fold change: 0.0647

RRIRSRPPRLPRPRPRPDYVPRP
shrunken log2 fold change: 0.063

RRIRSRPPRLPRPRPRPEANPRP
shrunken log2 fold change: 0.542

RRIRSRPPRLPRPRPRPECLPRP
shrunken log2 fold change: 0.18

RRIRSRPPRLPRPRPRPECRPRP
shrunken log2 fold change: 0.266

RRIRSRPPRLPRPRPRPEDRPRP
shrunken log2 fold change: 0.972

RRIRSRPPRLPRPRPRPEDYPRP
shrunken log2 fold change: -0.00134

RRIRSRPPRLPRPRPRPEEAPRP
shrunken log2 fold change: 0.983

RRIRSRPPRLPRPRPRPEECPRP
shrunken log2 fold change: 0.251

RRIRSRPPRLPRPRPRPEFFPRP
shrunken log2 fold change: -0.0464

RRIRSRPPRLPRPRPRPEGRPRP
shrunken log2 fold change: -0.0898

RRIRSRPPRLPRPRPRPEGVPRP
shrunken log2 fold change: 0.552

RRIRSRPPRLPRPRPRPEHWPRP
shrunken log2 fold change: 0.422

RRIRSRPPRLPRPRPRPEKEPRP
shrunken log2 fold change: 0.00748

RRIRSRPPRLPRPRPRPEKPPRP
shrunken log2 fold change: 0.014

RRIRSRPPRLPRPRPRPEKYPRP
shrunken log2 fold change: -1.28

RRIRSRPPRLPRPRPRPELKPRP
shrunken log2 fold change: -0.0512
